# Measured values: US10456451B2, “Protease-resistant mutants of stromal cell derived factor-1 in the repair of tissue damage” (Mesoblast International Sàrl, priority 2010, dated 2019)
# Target: T1, MMP-2 (Homo sapiens, UniProt P08253)
# T1 construct: purchased R&D Systems
# T1 sequence (P08253 110-660): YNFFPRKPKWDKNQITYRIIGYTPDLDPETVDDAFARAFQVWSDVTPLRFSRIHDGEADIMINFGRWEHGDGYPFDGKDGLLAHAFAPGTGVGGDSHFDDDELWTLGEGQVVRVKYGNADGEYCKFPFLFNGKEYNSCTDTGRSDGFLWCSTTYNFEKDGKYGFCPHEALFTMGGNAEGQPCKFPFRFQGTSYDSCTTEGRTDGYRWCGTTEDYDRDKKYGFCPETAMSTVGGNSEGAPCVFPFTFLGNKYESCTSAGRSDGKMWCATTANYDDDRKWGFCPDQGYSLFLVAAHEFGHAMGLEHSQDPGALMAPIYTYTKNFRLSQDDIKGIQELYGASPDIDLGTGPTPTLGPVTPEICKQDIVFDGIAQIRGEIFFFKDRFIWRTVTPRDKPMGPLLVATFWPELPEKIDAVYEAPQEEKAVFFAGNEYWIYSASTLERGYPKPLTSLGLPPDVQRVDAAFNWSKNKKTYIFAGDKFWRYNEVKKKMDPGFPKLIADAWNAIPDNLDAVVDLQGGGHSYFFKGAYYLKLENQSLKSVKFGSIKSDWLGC
# Assay: MMP-2 cleavage of Sumo fusion proteins, SDS-PAGE
# Format: biochemical
# Description: Human recombinant MMP-2 (R&D Systems) was activated for 1 hour with 4-aminophenylmercuric acetate (APMA, 1 mM) at 37° C. 4 μg of Sumo-SSDF-1-RAD or Sumo-SSDF-1(S4V)-RAD was incubated for 1 hour to 48 hours at 21° C. with 50 ng of activated MMP-2 in TCNB buffer (50 mM Tris, pH 7.5, 10 mM CaCl2, 150 mM NaCl, 0.05% Brij-35). Sample loading buffer (Invitrogen) and 2-mercaptoethanol (0.5 M, final concentration) were added, and samples were boiled for 5 minutes and run on a 10% Bis-Tris gel. Proteins used for this experiment were obtained after cation-exchange chromatography, but were neither cleaved by Sumo-protease nor purified by RPC-HPLC.
substance,measurement,value
"SDF-1(S4V): SDF-1 with Ser→Val at position 4, SEQ ID NO:65",rate of cleavage lower than SDF-1,at least 48 times
